The record followed here is paper PMC10693564 (Nature Communications, 2023).

The target in this assay is T1, UBE1L (1-1012aa) (UniProt P41226 1-1012).
T1 construct: In the cryo-EM sample its active-site cysteine was disulfide-linked to Cys86 of UBE2L6; also called UBA7; not shown: GST, N-terminal, cleaved
T1 sequence (looked up): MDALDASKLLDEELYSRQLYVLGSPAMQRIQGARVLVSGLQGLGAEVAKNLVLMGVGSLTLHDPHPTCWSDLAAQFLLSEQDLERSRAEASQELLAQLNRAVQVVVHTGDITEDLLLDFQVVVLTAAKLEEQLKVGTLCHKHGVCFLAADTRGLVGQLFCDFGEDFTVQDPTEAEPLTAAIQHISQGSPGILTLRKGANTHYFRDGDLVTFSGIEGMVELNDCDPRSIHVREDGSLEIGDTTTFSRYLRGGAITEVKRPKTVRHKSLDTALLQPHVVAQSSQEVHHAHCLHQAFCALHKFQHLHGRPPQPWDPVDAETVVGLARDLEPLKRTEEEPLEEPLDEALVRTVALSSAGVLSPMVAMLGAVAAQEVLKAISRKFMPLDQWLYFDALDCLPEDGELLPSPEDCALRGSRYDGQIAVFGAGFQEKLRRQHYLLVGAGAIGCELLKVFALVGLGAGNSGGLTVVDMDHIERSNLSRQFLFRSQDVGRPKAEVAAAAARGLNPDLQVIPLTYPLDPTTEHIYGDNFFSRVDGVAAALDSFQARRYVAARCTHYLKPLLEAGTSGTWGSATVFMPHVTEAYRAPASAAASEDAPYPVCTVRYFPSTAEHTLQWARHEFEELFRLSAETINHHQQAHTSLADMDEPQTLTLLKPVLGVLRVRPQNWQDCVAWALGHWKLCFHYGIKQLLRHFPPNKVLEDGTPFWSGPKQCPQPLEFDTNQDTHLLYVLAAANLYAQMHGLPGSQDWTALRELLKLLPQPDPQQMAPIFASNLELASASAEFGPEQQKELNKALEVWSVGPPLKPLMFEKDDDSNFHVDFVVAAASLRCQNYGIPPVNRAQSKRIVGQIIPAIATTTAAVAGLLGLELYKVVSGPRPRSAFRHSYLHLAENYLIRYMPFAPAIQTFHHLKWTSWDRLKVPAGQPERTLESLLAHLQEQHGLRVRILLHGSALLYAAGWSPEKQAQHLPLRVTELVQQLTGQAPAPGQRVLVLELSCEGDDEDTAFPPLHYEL
As to the kind of experiment: cryo-EM structure. Conditions: both partners purified.

B1: UBE2L6^C86only (enzyme)
chain: MMASMRVVKELEDLQKKPPPYLRNLSSDDANVLVWHALLLPDQPPYHLKAFNLRISFPPEYPFKPPMIKFTTKIYHPNVDENGQICLPIISSENWKPSTKTSQVLEALNVLVNRPNIREPLRMDLADLLTQNPELFRKNAEEFTLRFGVDRPS
notes: non-catalytic cysteines mutated to serine; also called UBE2L6(C98S/C102S); UbcH8; not shown: 6xHis, N-terminal, cleaved; GST, N-terminal, cleaved
B1: the binding result is reported as “binds”.
